Measured values: paper PMC8960791 (Communications Biology, 2022)

Molecular target: soluble HLA-E-VL9, HLA-E*01:03 heavy chain refolded with β2-microglobulin and synthetic VL9 peptide (Homo sapiens, HLA-E*01:03, strain)

| Binder | binding result | Kd [µM] |
| --- | --- | --- |
| CA162 (antibody, V domains shown) VH: QVQLVESGGGLVKPGGSLRLSCAASGFTFSDYYMSWIRQAPGKGLEWVSYISSSSSYTNYADSVKGRFTISRDNAKNSLYLQMNSLRAEDTAVYYCARGRTMFKNYYDSSGYYGYFDYWGQGTLVTVSS VL: DIQMTQSPSSVSASVGDRVTITCRASQGISSWLAWYQQKPGKAPKLLIYAASSLQSGVPSRFSGSGSGTDFTLTISSLQPEDFATYYCQQANSPLTFGGGTKVEIK | binds |  |
| CA153 (antibody, V domains shown) VH: EVQLVESGGGLVKPGGSLRLSCAASGFTFSSYSMNWVRQAPGKGLEWVSSISSSSSYIYYADSVKGRFTISRDNAKNSLYLQMNSLRAEDTAVYYCARLTYYYYMDVWGKGTTVTVSS VL: not shown | binds |  |
| CA158 (antibody, V domains shown) VH: EVQLVESGGGLVKPGGSLRLSCAASGFTFSSYSMNWVRQAPGKGLEWVSSISSSSSYIYYADSVKGRFTISRDNAKNSLYLQMNSLRAEDTAVYYCARMYQLAAIDYWGQGTLVTVSS VL: not shown | binds |  |
| CA123 (antibody, V domains shown) VH: EVQLVESGGGLVQPGGSLRLSCAASGFTFSSYWMHWVRQAPGKGLVWVSRINSDGSSTSYADSVKGRFTISRDNAKNTLYLQMNSLRAEDTAVYYCARDQGSTSCYYCYYGMDVWGQGTTVTVSS VL: not shown |  | 3.8 |
| CA154 (antibody, V domains shown) VH: not shown VL: AIRMTQSPSSFSASTGDRVTITCRASQGISSYLAWYQQKPGKAPKLLIYAASTLQSGVPSRFSGSGSGTDFTLTISCLQSEDFATYYCQQYYSYALTFGGGTKVEIK | binds |  |
| CA141 (antibody, V domains shown) VH: EVQLVESGGGLVKPGGSLRLSCAASGFTFSSYSMNWVRQAPGKGLEWVSSISSSSSYIYYADSVKGRFTISRDNAKNSLYLQMNSLRAEDTAVYYCARASENGDDAFDIWGQGTMVTVSS VL: EIVLTQSPATLSLSPGERATLSCRASQSVSSYLAWYQQKPGQAPRLLIYDASNRATGIPARFSGSGSGTDFTLTISSLEPEDFAVYYCQQRSNWPPYTFGQGTKLEIK | binds |  |
| CA143 (antibody, V domains shown) VH: EVQLVESGGGLVKPGGSLRLSCAASGFTFSSYSMNWVRQAPGKGLEWVSSISSSSSYIYYADSVKGRFTISRDNAKNSLYLQMNSLRAEDTAVYYCARDSLPAGDYFDYWGQGTLVTVSS VL: DIQLTQSPSFLSASVGDRVTITCRASQGISSYLAWYQQKPGKAPKLLIYAASTLQSGVPSRFSGSGSGTEFTLTISSLQPEDFATYYCQQLNSYPQTTFGGGTKVEIK | binds |  |
| CA144 (antibody, V domains shown) VH: EVQLVESGGGLVKPGGSLRLSCAASGFTFSSYSMNWVRQAPGKGLEWVSSISSSSSYIYYADSVKGRFTISRDNAKNSLYLQMNSLRAEDTAVYYCARDRVEMAFHFDYWGQGTLVTVSS VL: not shown | binds |  |
| CA139 (antibody, V domains shown) VH: not shown VL: DIQMTQSPSSLSASVGDRVTITCRASQGISNYLAWFQQKPGKAPKSLIYAASSLQSGVPSKFSGSGSGTDFTLTISSLQPEDFATYYCQQYNSYPLTFGGGTKVEIK | binds |  |
| CA146 (antibody, V domains shown) VH: QVQLVESGGGVVQPGRSLRLSCAASGFTFSSYGMHWVRQAPGKGLEWVAVISYDGSNKYYADSVKGRFTISRDNSKNTLYLQMNSLRAEDTAVYYCAKDRYSIVGATSNGMDVWGQGTTVTVSS VL: not shown | binds |  |
| CA124 (antibody, V domains shown) VH: QVQLVESGGGLVKPGGSLRLSCAASGFTFSDYYMSWIRQAPGKGLEWVSYISSSGSTIYYADSVKGRFTISRDNAKNSLYLQMNSLRAEDTAVYYCASGFSSWGADDYWGQGTLVTVSS VL: HPDDPVSSSLSASVGDRVTITCRASQGISNYLAWFQQKPGKAPKSLIYAASSLQSGVPSKFSGSGSGTDFTLTISSLQPEDFATYYCQQYNSYPLTFGQGTKLEIK | binds |  |
| CA155 (antibody, V domains shown) VH: QVQLVESGGGLVKPGGSLRLSCAASGFTFSDYYMSWIRQAPGKGLEWVSYISSSSSYTNYADSVKGRFTISRDNAKNSLYLQMNSLRAEDTAVYYCARGGIYYYYYMDVWGKGTTVTVSS VL: not shown | binds |  |
| CA157 (antibody, V domains shown) VH: EVQLVESGGGLVQPGGSLRLSCAASGFTFSSYEMNWVRQAPGKGLEWVSYISSSGSTIYYADSVKGRFTISRDNAKNSLYLQMNSLRAEDTAVYYCARGYCSSTSCPFDYWGQGTLVTVSS VL: not shown | binds |  |
| CA131 (antibody, V domains shown) VH: QLQLQESGSGLVKPSQTLSLTCAVSGGSISSGGYSWSWIRQPPGKGLEWIGYIYHSGSTYYNPSLKSRVTISVDRSKNQFSLKLSSVTAADTAVYYCATGGGHKELGGWGQGTLVTVSS VL: not shown | binds |  |
| CA150 (antibody, V domains shown) VH: QVQLVQSGAEVKKPGSSVKVSCKASGGTFSSYAISWVRQAPGQGLEWMGGIIPIFGTANYAQKFQGRVTITADESTSTAYMELSSLRSEDTAVYYCASFPNCSSTSCYYYYYMDVWGKGTTVTVSS VL: QSALTQPASVSGSPGQSITISCTGTSSDVGGYNYVSWYQQHPGKAPKLMIYDVSNRPSGVSNRFSGSKSGNTASLTISGLQAEDEADYYCSSYTSSSTRDVVFGGGTKLTVL | binds |  |
| CA128 (antibody, V domains shown) VH: QVQLVESGGGLVKPGGSLRLSCAASGFTFSDYYMSWIRQAPGKGLEWVSYISSSGSTIYYADSVKGRFTISRDNAKNSLYLQMNSLRAEDTAVYYCARDSGSFVGVFDYWGQGTLVTVSS VL: not shown | binds |  |
| CA145 (antibody, V domains shown) VH: QVQLVESGGGLVKPGGSLRLSCAASGFTFSDYYMSWIRQAPGKGLEWVSYISSSGSTIYYADSVKGRFTISRDNAKNSLYLQMNSLRAEDTAVYYCARDVLELRWWFDPWGQGTLVTVSS VL: not shown | binds |  |
| CA148 (antibody, V domains shown) VH: QVQLVQSGAEVKKPGASVKVSCKASGYTFTSYGISWVRQAPGQGLEWMGWISAYNGNTNYAQKLQGRVTMTTDTSTSTAYMELRSLRSDDTAVYYCARTPGDEYYYYYYMDVWGKGTTVTVSS VL: EIVLTQSPATLSLSPGERATLSCRASQSVSSYLAWYQQKPGQAPRLLIYDASNRATGIPARFSGSGSGTDFTLTISSLEPEDFAVYYCQQRSNWPRTFGQGTKLEIK | binds |  |
| CA159 (antibody, V domains shown) VH: QVQLVQSGAEVKKPGSSVKVSCKASGGTFSSYAISWVRQAPGQGLEWMGGIIPIFGTANYAQKFQGRVTITADESTSTAYMELSSLRSEDTAVYYCARASYYYYYMDVWGKGTTVTVSS VL: not shown | binds |  |
| CA151 (antibody, V domains shown) VH: RCSCRSRAPGLVKPSETLSLTCTVSGGSVSSGSYYWSWIRQPPGKGLEWIGYIYYSGSTNYNPSLKSRVTISVDTSKNQFSLKLSSVTAADTAVYYCASFTRMSPYAFDIWGQGTMVTVSS VL: not shown | binds |  |
| CA156 (antibody, V domains shown) VH: EVQLVESGGGLVKPGGSLRLSCAASGFTFSSYSMNWVRQAPGKGLEWVSSISSSSSYIYYADSVKGRFTISRDNAKNSLYLQMNSLRAEDTAVYYCARDFSGDFWSGYDYWGQGTLVTVSS VL: not shown | binds |  |
| CA125 (antibody, V domains shown) VH: EVQLVESGGGLVKPGGSLRLSCAASGFTFSSYSMNWVRQAPGKGLEWVSSISSSSSYIYYADSVKGRFTISRDNAKNSLYLQMNSLRAEDTAVYYCARVVDTAMGDAFDIWGQGTMVTVSS VL: not shown | binds |  |
| CA134 (antibody, V domains shown) VH: EVQLVESGGGLVKPGGSLRLSCAASGFTFSSYSMNWVRQAPGKGLEWVSSISSSSSYIYYADSVKGRFTISRDNAKNSLYLQMNSLRAEDTAVYYCARVFGEQLVSFFDYWGQGTLVTVSS VL: EIVMTQSPPGERATLSCRASQSVSSNLAWYQQKPGQAPRLLIYGASTRATGIPARFSGSGSGTEFTLTISSLQSEDFAVYYCQQYNNWPPWTFGQGTKVEIK | binds |  |
| CA149 (antibody, V domains shown) VH: EVQLVESGGGLVKPGGSLRLSCAASGFTFSSYSMNWVRQAPGKGLEWVSSISSSSSYIYYADSVKGRFTISRDNAKNSLYLQMNSLRAEDTAVYYCARCAAGFVPDAFDIWGQGTMVTVSS VL: not shown | binds |  |
| CA120 (antibody, V domains shown) VH: EVQLVESGGGLVQPGGSLRLSCVASGFTFSTYSMNWVRQAPGKGLEWVSYISSSSSTIYYADSVKGRFTISRDNAKNSLYLQMNSLRAEDTAVYYCARDPGWLSWFDPWGQGTLVTVSS VL: RSLPAPWSLSPGERATLSCRASQSVSNSYLAWYQQKPGQAPRLLIYGASSRATGIPDRFSGSGSGTDFTLTISRLEPEDFAVYYCQQYGGSPRTFGQGTKVEIK | binds |  |
| CA137 (antibody, V domains shown) VH: EVQLVESGGGLVQPGGSLRLSCVASGFTFSTYSMNWVRQAPGKGLEWVSYISSSSSTIYYADSVKGRFTISRDNAKNSLYLQMNSLRAEDTAVYYCARDPGWLSWFDPWGQGTLVTVSS VL: not shown | binds |  |
| CA133 (antibody, V domains shown) VH: EVQLVESGGGLVQPGGSLRLSCVASGFTFSSYSMNWVRQAPGKGLEWVSYISSSSSTIYYADSVKGRFTISRDNAKNSLYLQMNSLRAEDTAVYYCARDPGWLSWFDPWGQGTLVTVSS VL: not shown | binds |  |
| CA132 (antibody, V domains shown) VH: EVQLVESGGGLVQPGGSLRLSCVASGFTFSTYSMNWVRQAPGKGLEWVSYISSSSSTIYYADSVKGRFTISRDNAKNSLYLQMNSLRAEDTAVYYCARDPGWLSWFDPWGQGTLVTVSS VL: EIVLTQSPPGERATLSCRASQSVSNSYLAWYQQKPGQAPRLLIYGASSRATGIPDRFSGSGSGTDFTLTISRLEPEDFAVYYCQQYGGSPRTFGQGTKVEIK | binds |  |
| CA135 (antibody, V domains shown) VH: EVQLVESGGGLVQPGGSLRLSCVASGFTFSTYSMNWVRQAPGKGLEWVSYISSSSSTIYYADSVKGRFTISRDNAKNSLYLQMNSLRAEDTAVYYCARDPGWLSWFDPWGQGTLVTVSS VL: not shown | binds |  |
